Data: patent US20190016825A1 (JIANGSU HENGRUI MEDICINE, published 2019)
Numbering of substitutions follows the chain as printed.

B1: h001-14 (antibody, human IgG1, V domains shown)
VH: QVQLVQSGAEVKKPGASVKVSCKASGYTFNDYWMHWVRQAPGQGLEWMGYINPSSGFTKYHQNFKDRVTMTRDTSISTAYMELSRLTSDDTAVYYCARQYDYDEDWYFDVWGQGTTVTVSS
VL: DIQMTQSPSSLSASVGDRVTITCKSSQSLLNSRTRKNFLAWYQQKPGKAPKLLIYWASTRESGVPDRFSGSGSGTDFTLTISSLQPEDFATYYCKQSFNLFTFGQGTKLEIK
notes: Variable regions only; also called h001_VH.1C + h001_VL.1A
B2: h001-2 (antibody, human IgG1, V domains shown)
VH: B1 VH with N30T, T87R
VL: B1 VL
notes: Variable regions only; also called h001_VH.1 + h001_VL.1A
B3: h001-21 (antibody, human IgG1, V domains shown)
VH: B1 VH with R38K, M48I, R67K, V68A, M70L, R72A, T74K
VL: B1 VL with D66S
notes: Variable regions only; also called h001_VH.1E + h001_VL.1
B4: h001-24 (antibody, human IgG1, V domains shown)
VH: B1 VH with R38K, M48I, R67K, V68A, M70L, R72A, T74K
VL: B1 VL with Q3V, T5S, A49S
notes: Variable regions only; also called h001_VH.1E + h001_VL.1C
B5: h001-11 (antibody, human IgG1, V domains shown)
VH: B1 VH with N30T
VL: B1 VL with T5S
notes: Variable regions only; also called h001_VH.1B + h001_VL.1B
B6: h001-18 (antibody, human IgG1, V domains shown)
VH: B1 VH with R72A, T74K
VL: B1 VL
notes: Variable regions only; also called h001_VH.1D + h001_VL.1A
B7: h001-20 (antibody, human IgG1, V domains shown)
VH: B1 VH with R72A, T74K
VL: B1 VL with Q3V, T5S, A49S
notes: Variable regions only; also called h001_VH.1D + h001_VL.1C
B8: h001-7 (antibody, human IgG1, V domains shown)
VH: B1 VH with T87R
VL: B1 VL with T5S
notes: Variable regions only; also called h001_VH.1A + h001_VL.1B
B9: h001-23 (antibody, human IgG1, V domains shown)
VH: B1 VH with R38K, M48I, R67K, V68A, M70L, R72A, T74K
VL: B1 VL with T5S
notes: Variable regions only; also called h001_VH.1E + h001_VL.1B
B10: h001-3 (antibody, human IgG1, V domains shown)
VH: B1 VH with N30T, T87R
VL: B1 VL with T5S
notes: Variable regions only; also called h001_VH.1 + h001_VL.1B
B11: h001-12 (antibody, human IgG1, V domains shown)
VH: B1 VH with N30T
VL: B1 VL with Q3V, T5S, A49S
notes: Variable regions only; also called h001_VH.1B + h001_VL.1C
B12: h001-13 (antibody, human IgG1, V domains shown)
VH: B1 VH
VL: B1 VL with D66S
notes: Variable regions only; also called h001_VH.1C + h001_VL.1
B13: h001-15 (antibody, human IgG1, V domains shown)
VH: B1 VH
VL: B1 VL with T5S
notes: Variable regions only; also called h001_VH.1C + h001_VL.1B
B14: h001-6 (antibody, human IgG1, V domains shown)
VH: B1 VH with T87R
VL: B1 VL
notes: Variable regions only; also called h001_VH.1A + h001_VL.1A
B15: h001-17 (antibody, human IgG1, V domains shown)
VH: B1 VH with R72A, T74K
VL: B1 VL with D66S
notes: Variable regions only; also called h001_VH.1D + h001_VL.1
B16: h001-19 (antibody, human IgG1, V domains shown)
VH: B1 VH with R72A, T74K
VL: B1 VL with T5S
notes: Variable regions only; also called h001_VH.1D + h001_VL.1B
B17: h001-1 (antibody, human IgG1, V domains shown)
VH: B1 VH with N30T, T87R
VL: B1 VL with D66S
notes: Variable regions only; also called h001_VH.1 + h001_VL.1
B18: h001-5 (antibody, human IgG1, V domains shown)
VH: B1 VH with T87R
VL: B1 VL with D66S
notes: Variable regions only; also called h001_VH.1A + h001_VL.1
B19: h001-22 (antibody, human IgG1, V domains shown)
VH: B1 VH with R38K, M48I, R67K, V68A, M70L, R72A, T74K
VL: B1 VL
notes: Variable regions only; also called h001_VH.1E + h001_VL.1A
B20: h001-16 (antibody, human IgG1, V domains shown)
VH: B1 VH
VL: B1 VL with Q3V, T5S, A49S
notes: Variable regions only; also called h001_VH.1C + h001_VL.1C

Legend:
PCSK9-D374Y-BP15-His6 [1] = molecular target: T1, PCSK9-D374Y-BP15-His6 (human, UniProt Q8NBP7 31-692, biotin on the BP15 biotin receiving peptide); assay: ELISA, bio-PCSK9-Y captured on streptavidin plate
T1 construct: also called PCSK9-Y; mutant PCSK9
Method: The binding ability of anti-PCSK9 antibodies of the present invention to PCSK9-Y was detected by measuring the amount of antibodies binding to PCSK9-Y (mutant PCSK9, SEQ ID NO: 6) fixed on the ELISA plate.
Streptavidin (sigma, CAT#54762) was diluted to 2 μg/ml with PBS and coated into 96-well ELISA plate at 4° C. overnight. The plate was washed and then blocked with Tris buffer (including 0.9 mM CaCl₂, 0.05% Tween 20 and 5% skim milk) at 37° C. for 2 hours. Then the plate was washed again and 100 μl/well of the biotin-labeled PCSK9-Y, produced in-house, (bio-PCSK9-Y, diluted with Tris buffer containing 0.9 mM CaCl₂, 0.05% Tween 20 and 1% skim milk) was added and incubated at 37° C. for 1 hour. After the wash step, different concentrations of diluted PCSK9 antibody samples were added to the plate and incubated at 37° C. for 1 hour. Then the plate was washed again and HRP-goat-anti-human (H+L) antibody (Jackson ImmunoResearch, CAT#109-035-088) was added and incubated at 37° C. for 1 hour. Then the plate was washed again and tetramethylbenzidine solution was added for development. Finally, the stop solution was added and the OD450 value was measured on the Microplate reader, and then EC50 was calculated.
The results of ELISA test for the binding ability of chimeric antibodies and back-mutated antibodies of the present invention to mutant PCSK9 are shown in table 6.

PCSK9-BP15-His6 [2] = molecular target: T2, PCSK9-BP15-His6 (human, UniProt Q8NBP7 31-692, biotin on the BP15 biotin receiving peptide); assay: ELISA, bio-WT-PCSK9 captured on streptavidin plate
T2 construct: It holds a signal peptide (underlined in print); also called WT PCSK9; bio-WT-PCSK9
Method: The binding ability of anti-PCSK9 antibodies of the present invention to PCSK9 was detected by measuring the amount of antibodies binding to wild-type PCSK9 protein (WT PCSK9, SEQ ID NO: 5) fixed on the ELISA plate.
Streptavidin (sigma, CAT#S4762) was diluted to 2 μg/ml with PBS and coated into 96-well ELISA plate, at 4° C. overnight. The plate was washed and then blocked with Tris buffer (including 0.9 mM CaCl2, 0.05% Tween 20 and 5% skim milk) at 37° C. for 2 hours. Then the plate was washed again and 100 μl/well of the biotin-labeled PCSK9, produced in-house, (bio-WT-PCSK9, diluted with Tris buffer containing 0.9 mM CaCl2, 0.05% Tween 20 and 1% skim milk), was added and incubated at 37° C. for 1 hour. After the wash step, different concentrations of diluted PCSK9 antibody samples was added to the plate and incubated at 37° C. for 1 hour. Then the plate was washed again and HRP-goat-anti-human (H+L) antibody (Jackson ImmunoResearch, CAT#109-035-088) was added and incubated at 37° C. for 1 hour. Then the plate was washed again and tetramethylbenzidine solution was added for development. Finally, the stop solution was added and the OD450 value was measured on the Microplate reader, and then EC50 was calculated.

PCSK9-BP15-His6 [3] = molecular target: T2, PCSK9-BP15-His6; assay: blocking ELISA, LDLR-FC (SEQ ID NO: 8) coated, bio-WT-PCSK9 plus antibody
Method: The blocking abilities of PCSK9 antibodies of the present invention to the binding of LDLR-FC (produced in-house, sequence is shown in SEQ ID NO: 8) to PCSK9 (SEQ ID NO: 5) were detected by measuring the amount of PCSK9 binding to LDLR in the presence of the antibodies.
LDLR-FC was diluted to 5 μg/ml with phosphate buffer and coated in the 96-well ELISA plate, then incubated at 4° C. overnight. The plate was washed and then blocked with Tris buffer (including 0.9 mM CaCl₂, 0.05% Tween 20 and 5% skim milk) at 37° C. for 2 hours. Then the plate was washed again and 100 μl/well of the mixture of biotin-labeled PCSK9 (bio-WT-PCSK9, diluted to the final concentration of 2 μg/ml with Tris buffer containing 0.9 mM CaCl₂, 0.05% Tween 20 and 1% skim milk) and antibody samples (diluted with Tris buffer containing 0.9 mM CaCl₂, 0.05% Tween 20 and 1% skim milk) were added and incubated at 37° C. for 1 hour. Then the plate was washed again and horseradish peroxidase-streptavidin (Sigma, CAT#52438) was added and incubated at 37° C. for 1 hour. Then the plate was washed and tetramethylbenzidine solution was added for development. Finally, the stop solution was added and the OD450 was measured on the Microplate reader, then IC50 was calculated.

PCSK9-D374Y-BP15-His6 [4] = molecular target: T1, PCSK9-D374Y-BP15-His6; assay: blocking ELISA, LDLR-FC (SEQ ID NO: 8) coated, bio-PCSK9-Y plus antibody
Method: The blocking abilities of anti-PCSK9 antibodies to the binding of LDLR-FC (SEQ ID NO: 8) to PCSK9-Y (mutant PCSK9, SEQ ID NO: 6) were detected by measuring the amount of PCSK9-Y binding to LDLR in the presence of the antibodies.
LDLR-FC was diluted to 2 μg/ml with phosphate buffer and coated in the 96-well ELISA plate (Costar, CAT#3590), then incubated at 4° C. overnight. The plate was washed and then blocked with Tris buffer (including 0.9 mM CaCl₂, 0.05% Tween 20 and 5% skim milk) at 37° C. for 2 hours. Then the plate was washed again and 100 μl/well of the mixture of biotin-labeled PCSK9-Y (bio-PCSK9-Y, diluted to final concentration of […] with Tris buffer containing 0.9 mM CaCl₂, 0.05% Tween 20 and 1% skim milk) and antibody samples (diluted with Tris buffer containing 0.9 mM CaCl₂, 0.05% Tween 20 and 1% skim milk) were added and incubated at 37° C. for 1 hour. Then the plate was washed again and horseradish peroxidase-streptavidin (sigma, CAT#S2438) was added and incubated at 37° C. for 1 hour. Then the plate was washed and tetramethylbenzidine solution was added for development. Finally, the stop solution was added and the OD450 value was measured on the Microplate reader, then IC50 was calculated.
The results of blocking test for the blocking effects of the chimeric antibodies and back-mutated antibodies of the present invention on the binding of LDLR-FC/PCSK9-Y are shown in table 7.

| Binder | EC50 (PCSK9-D374Y-BP15-His6 [1]) [µg/mL] | EC50 (PCSK9-BP15-His6 [2]) [µg/mL] | IC50 (PCSK9-BP15-His6 [3]) [µg/mL] | IC50 (PCSK9-D374Y-BP15-His6 [4]) [µg/mL] |
| --- | --- | --- | --- | --- |
| B1 | 0.0112 | 0.0084 |  |  |
| B2 | 0.0157 | 0.0123 | 0.675 | 0.455 |
| B3 | 0.0119 | 0.0145 |  |  |
| B4 | 0.017 | 0.0092 |  |  |
| B5 | 0.017 | 0.0129 |  |  |
| B6 | 0.0191 | 0.0147 |  |  |
| B7 | 0.017 | 0.0126 |  |  |
| B8 | 0.0137 | 0.012 | 0.652 | 0.515 |
| B9 | 0.0125 | 0.0118 |  |  |
| B10 | 0.0152 | 0.0113 | 0.702 | 0.475 |
| B11 | 0.0124 | 0.0103 |  |  |
| B12 | 0.0096 | 0.0071 |  |  |
| B13 | 0.0178 | 0.011 |  |  |
| B14 | 0.0144 | 0.01 | 0.662 | 0.437 |
| B15 | 0.0161 | 0.0114 |  |  |
| B16 | 0.0204 | 0.0139 |  |  |
| B17 | 0.0132 | 0.0084 | 0.5 | 0.566 |
| B18 | 0.0152 | 0.0141 | 4.32 | 0.468 |
| B19 | 0.0111 | 0.0123 |  |  |
| B20 | 0.0111 | 0.0082 |  |  |
